# T1: PBX1 I197A (human, UniProt P40424 1-430, I197A)
# T1 construct: PBX1, residues 1-430; source: E. coli, purified
# T1 sequence (looked up): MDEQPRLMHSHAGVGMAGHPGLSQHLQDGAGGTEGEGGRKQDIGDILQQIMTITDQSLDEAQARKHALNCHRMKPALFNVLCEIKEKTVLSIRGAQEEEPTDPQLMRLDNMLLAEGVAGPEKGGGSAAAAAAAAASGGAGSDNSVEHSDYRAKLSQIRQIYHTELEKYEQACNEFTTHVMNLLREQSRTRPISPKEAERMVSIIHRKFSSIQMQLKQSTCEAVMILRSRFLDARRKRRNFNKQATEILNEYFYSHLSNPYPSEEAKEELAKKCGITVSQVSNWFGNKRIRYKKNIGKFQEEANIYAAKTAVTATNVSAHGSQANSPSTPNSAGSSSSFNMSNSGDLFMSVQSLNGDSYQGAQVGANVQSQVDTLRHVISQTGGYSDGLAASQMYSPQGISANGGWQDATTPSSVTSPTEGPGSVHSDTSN
# T2: PREP1 L67A (UniProt P55347 1-436, L67A)
# T2 construct: PREP1 (PKNOX1), residues 1-436
# T2 sequence (looked up): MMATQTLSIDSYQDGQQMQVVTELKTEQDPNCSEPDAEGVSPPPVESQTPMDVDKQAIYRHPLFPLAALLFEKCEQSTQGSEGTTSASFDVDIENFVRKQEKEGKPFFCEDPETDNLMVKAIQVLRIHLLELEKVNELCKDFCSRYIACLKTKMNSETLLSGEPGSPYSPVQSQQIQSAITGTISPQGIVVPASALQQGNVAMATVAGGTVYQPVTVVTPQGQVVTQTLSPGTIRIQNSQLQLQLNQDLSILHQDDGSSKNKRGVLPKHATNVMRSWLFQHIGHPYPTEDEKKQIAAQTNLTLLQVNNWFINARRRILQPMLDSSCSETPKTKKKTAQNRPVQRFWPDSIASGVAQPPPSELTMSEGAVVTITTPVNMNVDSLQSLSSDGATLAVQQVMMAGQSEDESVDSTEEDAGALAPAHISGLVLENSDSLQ
# T3: PREP1 L129A (UniProt P55347 1-436, L129A)
# T3 construct: PREP1 (PKNOX1), residues 1-436
# T3 sequence (looked up): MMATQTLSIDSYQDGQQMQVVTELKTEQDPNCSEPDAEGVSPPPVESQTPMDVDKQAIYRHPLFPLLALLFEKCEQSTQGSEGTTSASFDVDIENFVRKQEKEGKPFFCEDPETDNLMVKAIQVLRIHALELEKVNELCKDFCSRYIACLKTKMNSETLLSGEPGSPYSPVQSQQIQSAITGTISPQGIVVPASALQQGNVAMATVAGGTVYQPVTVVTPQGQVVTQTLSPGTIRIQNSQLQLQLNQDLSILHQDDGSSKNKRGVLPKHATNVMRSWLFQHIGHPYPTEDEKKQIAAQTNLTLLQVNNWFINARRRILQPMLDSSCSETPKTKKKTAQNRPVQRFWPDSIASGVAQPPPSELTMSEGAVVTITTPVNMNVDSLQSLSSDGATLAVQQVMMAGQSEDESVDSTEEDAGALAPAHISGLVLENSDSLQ
# T4: PREP1 L63A (UniProt P55347 1-436, L63A)
# T4 construct: PREP1 (PKNOX1), residues 1-436
# T4 sequence (looked up): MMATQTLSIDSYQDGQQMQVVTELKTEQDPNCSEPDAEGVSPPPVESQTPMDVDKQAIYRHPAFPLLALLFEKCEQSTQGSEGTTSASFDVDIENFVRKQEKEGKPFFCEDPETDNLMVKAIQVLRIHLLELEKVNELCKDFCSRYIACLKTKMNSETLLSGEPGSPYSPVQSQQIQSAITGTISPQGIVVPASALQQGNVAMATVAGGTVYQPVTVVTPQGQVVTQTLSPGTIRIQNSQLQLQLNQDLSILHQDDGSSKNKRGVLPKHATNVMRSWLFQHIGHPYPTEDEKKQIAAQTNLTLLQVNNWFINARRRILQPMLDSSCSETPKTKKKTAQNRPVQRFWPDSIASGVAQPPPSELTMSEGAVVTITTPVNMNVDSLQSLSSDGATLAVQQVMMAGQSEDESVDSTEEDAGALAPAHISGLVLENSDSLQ
# Key:
# Test in all cases: time-resolved fluorescence immunoassay (TR-FIA); plate coated with monoclonal anti-PBX1; PBX1 pre-incubated with PREP1 or MEIS1 for 1 h on ice, 10 µg/mL in 1% BSA PBS, 1 h at room temperature on the plate; detected with anti-PREP1 or biotinylated anti-MEIS1/2 and Eu^3+ conjugates; normalised to the wild-type protein taken as 1
# Settings in all cases: both partners purified
# PBX1 I197A = molecular target: T1, PBX1 I197A
# PREP1 L67A = molecular target: T2, PREP1 L67A
# PREP1 L129A = molecular target: T3, PREP1 L129A
# PREP1 L63A = molecular target: T4, PREP1 L63A
binder,measurement,setting,value
"PREP1_(1-436), wild-type recombinant (TR-FIA) (natural protein, UniProt P55347 1-436, looked up, also called wild-type PREP1; PKNOX1; source: E. coli, purified) MMATQTLSIDSYQDGQQMQVVTELKTEQDPNCSEPDAEGVSPPPVESQTPMDVDKQAIYRHPLFPLLALLFEKCEQSTQGSEGTTSASFDVDIENFVRKQEKEGKPFFCEDPETDNLMVKAIQVLRIHLLELEKVNELCKDFCSRYIACLKTKMNSETLLSGEPGSPYSPVQSQQIQSAITGTISPQGIVVPASALQQGNVAMATVAGGTVYQPVTVVTPQGQVVTQTLSPGTIRIQNSQLQLQLNQDLSILHQDDGSSKNKRGVLPKHATNVMRSWLFQHIGHPYPTEDEKKQIAAQTNLTLLQVNNWFINARRRILQPMLDSSCSETPKTKKKTAQNRPVQRFWPDSIASGVAQPPPSELTMSEGAVVTITTPVNMNVDSLQSLSSDGATLAVQQVMMAGQSEDESVDSTEEDAGALAPAHISGLVLENSDSLQ",binding relative to wild type,PBX1 I197A,~65%
"PBX1_(1-430), wild-type recombinant (natural protein, human, UniProt P40424 1-430, looked up, also called wild-type PBX1; purified recombinant human PBX1; source: E. coli, purified) MDEQPRLMHSHAGVGMAGHPGLSQHLQDGAGGTEGEGGRKQDIGDILQQIMTITDQSLDEAQARKHALNCHRMKPALFNVLCEIKEKTVLSIRGAQEEEPTDPQLMRLDNMLLAEGVAGPEKGGGSAAAAAAAAASGGAGSDNSVEHSDYRAKLSQIRQIYHTELEKYEQACNEFTTHVMNLLREQSRTRPISPKEIERMVSIIHRKFSSIQMQLKQSTCEAVMILRSRFLDARRKRRNFNKQATEILNEYFYSHLSNPYPSEEAKEELAKKCGITVSQVSNWFGNKRIRYKKNIGKFQEEANIYAAKTAVTATNVSAHGSQANSPSTPNSAGSSSSFNMSNSGDLFMSVQSLNGDSYQGAQVGANVQSQVDTLRHVISQTGGYSDGLAASQMYSPQGISANGGWQDATTPSSVTSPTEGPGSVHSDTSN",binding result,PREP1 L67A,binds
same,binding result,PREP1 L129A,binds
same,binding result,PREP1 L63A,binds

# Source: publication PMC7545097, “Mapping the native interaction surfaces of PREP1 with PBX1 by cross-linking mass-spectrometry and mutagenesis” (Scientific Reports, 2020)
